# In patent publication US20260335456A1, “ANTIBODY-DRUG CONJUGATE HAVING CAMPTOTHECIN-BASED DRUG LINKED TO ANTIBODY HAVING LOW ANTIGEN-BINDING AFFINITY THROUGH LINKER” (PINOTBIO, INC., priority 2022, published 2026):
# Read-outs that look alike come from different tables or passages of the source.
# Tests used:
# [1] = system: various metastatic solid tumors; conditions: 8 mg/kg to 18 mg/kg; cited from earlier work
# [2] = system: metastatic epithelial cancers; conditions: cited from earlier work
# [3] = system: cells with an ABCG2 efflux pump; assay: ABCG2 efflux pump resistance, PBX-001 versus Trodelvy; assay type: cell-based
# [4] = system: patients treated with Sacituzumab Govitecan; conditions: cited from earlier work
# FaDu cell line = assay: Western blot of DDX5 and anti-apoptotic proteins in FaDu; assay type: cell-based; conditions: 0, 10, 100 nM
# Procedure: 1-1: Confirmation of Suppressive Activity of Expression of Cancer-Related Survival Genes of DDX5, Survivin, Mcl-1, XIAP and cIAP2 Through Western Blot
# 200,000 FaDu cell lines were seeded per well in a 6-well plate and incubated at constant temperature (37 °C, 5% CO2). […] It was incubated at constant temperature (37 °C, 5% CO2) for 24 hours. The well was treated with 100 μL of RIPA buffer dissolved in protease inhibitor cocktail. […] Protein concentration was determined through protein assay.
# Electrophoresis was performed on the gel at 60V.
# 7 sheets of activated filter paper, PVDF membrane, gel and 7 sheets of filter paper were placed in order in the cassettes of the Trans-Blot® Turbo™ Transfer System, and the lid was closed, and after being inserted into the machine, the protocol started.
# The transferred membrane was immersed in blocking buffer and incubated at constant temperature (RT, 1h). Next, it was incubated at 4 °C overnight in primary antibody solution. It was rinsed with TBST buffer for 3 minutes (repeated 3 times). Incubation was performed (RT, 1h) in a secondary antibody solution conjugated with HRP. It was rinsed with TBST buffer for 3 minutes (repeated 3 times).
# After soaking the membrane in the ECL substrate for 3 to 5 minutes, the signal was determined by using the ChemiDoc™ MP Imaging System.
# [5] = Lactone to carboxylate form conversion in pH 7.4; assay type: physicochemical
# Procedure: 3-2. Lactone to Carboxylate Form Conversion in pH 7.4
# Afterwards, it was centrifuged at 4 °C, 2 minutes, and 13,000 RCF conditions, and the supernatant was used as a sample.
# The column used was Cortecs C18 2.7 μm, 4.6×50 mm Column, and analysis was conducted under the following conditions. 1) 20 minutes: 5% B, 2) sample injection, 3) 2 minutes: 5% B, 4) 10 minutes: 5% B→50% B, 5) 1 minute: 50% B.
# In order to measure changes over time, the sample chamber was maintained at 37 °C, and the sample was set to be injected every measurement time. The measurement times were 0, 20, 40, 60, 90, 120, 180, 240, 300, 360, 480, 600 and 720 minutes.
# The content was calculated from the peak area of each lactone and carboxylate. Since the absorption coefficients of lactone and carboxylate are different, the lactone area was obtained by multiplying the carboxylate area by the equation below.
# [6] = system: MDA-MB-453 (HER2++) and FaDu (HER2+) cell lines; assay: Cell viability test in MDA-MB-453 and FaDu; assay type: cell-based; conditions: 3 days, FIG. 10
# Procedure: Cell viability assay was performed on MDA-MB-453 (HER2++) cell line and FaDu (HER2+) cell line in the same manner as Example 1-2.
# A549 = assay: Cell viability assay in A549; assay type: cell-based; conditions: A549, FIG. 9
# Procedure: After 24 hours, 100 μL of the drug at 9 concentrations (serial dilution of 1/5 from 1,000 nM) was treated with the cells. […] In this case, a control group that was not treated with the drug (drug concentration 0) was also prepared. It was cultured at constant temperature (37 °C, 5% CO2) for 3 or 6 days. 100 μL of CellTiter-Glo reagent (using CellTiter-Glo® Luminescent Cell Viability Assay kit (Promega, G7571)) was added to each well and pipetted. After incubation at constant temperature (RT) for 10 minutes, luminescence was measured.
# A549 cell line = assay: Western blot of DDX5 and anti-apoptotic proteins in A549; assay type: cell-based
# [7] = PBX-7016 pharmacokinetic profile in NOD SCID mice; assay type: in vivo
compound,measurement,setting,value
Sacituzumab Govitecan: humanized IgG linked to SN-38 through a pH-sensitive linker,dose-limiting toxicity,[1],neutropenia
same,"anemia, any grade",[2]; 8 mg/kg,38%
same,"anemia, grade 3 or higher",[2]; 8 mg/kg,13%
same,"constipation, any grade",[2]; 8 mg/kg,33%
same,"diarrhea, any grade",[2]; 8 mg/kg,53%
same,"diarrhea, grade 3 or higher",[2]; 8 mg/kg,4%
same,dose reductions,[2]; 8 mg/kg,19%
same,"fatigue, any grade",[2]; 8 mg/kg,61%
same,grade 3 or higher neutropenia after the first dose,[2]; 8 mg/kg,21%
same,"hair loss, any grade",[2]; 8 mg/kg,46%
same,"leukopenia, grade 3 or higher",[2]; 8 mg/kg,6%
same,"nausea, any grade",[2]; 8 mg/kg,59%
same,"neutropenia, any grade",[2]; 8 mg/kg,42%
same,"neutropenia, grade 3 or higher",[2]; 8 mg/kg,30%
same,"vomiting, any grade",[2]; 8 mg/kg,36%
same,"anemia, any grade",[2]; 10 mg/kg,42%
same,"constipation, any grade",[2]; 10 mg/kg,37%
same,"diarrhea, any grade",[2]; 10 mg/kg,62%
same,"diarrhea, grade 3 or higher",[2]; 10 mg/kg,10%
same,dose reductions,[2]; 10 mg/kg,28%
same,"fatigue, any grade",[2]; 10 mg/kg,52%
same,grade 3 or higher neutropenia after the first dose,[2]; 10 mg/kg,47%
same,"hair loss, any grade",[2]; 10 mg/kg,37%
same,"nausea, any grade",[2]; 10 mg/kg,63%
same,"neutropenia, any grade",[2]; 10 mg/kg,58%
same,"neutropenia, grade 3 or higher",[2]; 10 mg/kg,36%
same,"vomiting, any grade",[2]; 10 mg/kg,43%
same,resistance through ABCG2 efflux pump,[3],resistant
same,"diarrhea, all grade",[4]; all treated patients,65%
same,"neutropenia, any grade",[4]; all treated patients,61%
same,febrile neutropenia,[4]; patients,7%
same,neutropenic colitis,[4]; patients,0.5%
CC[C@@]1(O)C(=O)OCc2c1cc1n(c2=O)Cc2c-1nc1cc3c(c4c1c2[C@@H](NC(=O)[C@@H](C)O)CC4)OCO3 [PBX-7016],DDX5 degradation ranking,FaDu cell line; FaDu and A549,"followed by 7011, 7016 and 7014"
same,expression of anti-apoptotic proteins,"FaDu cell line; Survivin, cIAP2, Mcl-1, XIAP, 24 hours","decrease in the expression of Survivin, cIAP2, Mcl-1 and XIAP as the concentration increased"
same,rate of conversion from lactone to carboxylate form,"[5]; pH 7.4, 37 °C",0.8 % per minute
same,degraded at 3 µM,"[5]; pH 7.4, 37 °C, PBS with 10% DMSO, read-out: carboxylate form formed",> 86%
same,lactone to carboxylate conversion versus reference compounds,"[5]; pH 7.4, reference: exatecan, DXd, SN-38, FL118",faster and at a higher rate than other reference compounds
same,IC50 compared to Dxd,[6],IC50 of the same or higher level than Dxd
same,efficacy / IC50 in ABCG2-overexpressing cells,A549,still maintained strong efficacy
same,dual mechanism (topoisomerase I inhibition and DDX5 degradation),A549 cell line,dual MoA that acts as a degrader of DDX5 (p68)
same,DDX5 inhibition,A549 cell line; FIGS. 7 and 8,inhibits DDX5 in a concentration-dependent manner
same,"Survivin, Mcl-1 inhibition",A549 cell line; FIGS. 7 and 8,"observed to inhibit Survivin, Mcl-1"
same,comparison with PBX-7014,A549 cell line; FIGS. 7 and 8,worked better than PBX-7014
same,DDX5 degradation ranking,"A549 cell line; FaDu and A549, 0, 10, 100 nM","followed by 7011, 7016 and 7014"
same,"plasma concentration, individual mice","[7]; IP 1 mg/kg, 4 h, Mouse 4-6",BLOQ
same,"plasma concentration, individual mice","[7]; IP 1 mg/kg, 12 h, Mouse 4-6",BLOQ
same,"plasma concentration, individual mice","[7]; IP 1 mg/kg, 24 h, Mouse 4-6",BLOQ
same,"plasma concentration, individual mice","[7]; IP 1 mg/kg, 48 h, Mouse 4-6",BLOQ
same,"plasma concentration, individual mice","[7]; IV 1 mg/kg, 4 h, Mouse 1-3",BLOQ
same,"plasma concentration, individual mice","[7]; IV 1 mg/kg, 12 h, Mouse 1-3",BLOQ
same,"plasma concentration, individual mice","[7]; IV 1 mg/kg, 24 h, Mouse 1-3",BLOQ
same,"plasma concentration, individual mice","[7]; IV 1 mg/kg, 48 h, Mouse 1-3",BLOQ
same,clearance from the blood,"[7]; intravascular or intraperitoneal, mice",cleared from the blood very quickly
